{"source": "the domain aggregation screens of Martell et al. (2025)", "assay": "soluble fraction after stress (log2 fold change); higher = more stays soluble; pooled small domains, quantitative proteomics", "conditions": "stress: 50 degC", "method_in_brief": "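Quantitative proteomics served as the high-throughput read-out for pooled custom libraries of small protein domains. Each was stressed at 50°C. Aggregation propensity is expressed as the base-two log fold change in soluble protein after stress. A higher value means a larger share of the protein remains in solution.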", "data": [{"sequence": "HMAADWTAIKLAYVNGGMSMRELAQRFHVGAAGLMKRAAKEGWEAERQQNSAKVSNAAQMLIN", "values": [{"measurement": "soluble fraction (log2)", "value": 0.33}]}, {"sequence": "HMAAEEAFPGGRIVQNAEENRLQILFDEIPGEDVRAALKSHGFRWSPKNKAWQRQLTQNAEYDARRILGI", "values": [{"measurement": "soluble fraction (log2)", "value": -0.00473}]}, {"sequence": "HMAAEELTVDKILTAQSFGVTAEAILAKVNDPANTVATLTQADVDRLRAAGVPEGVVTALQARAPQ", "values": [{"measurement": "soluble fraction (log2)", "value": 0.0975}]}, {"sequence": "HMAAENAVGARVKALREAMDLSLRDLSERSGVSPTMLSQVERGSTSPTLAVAEKIAAGLDLSLSQLLRL", "values": [{"measurement": "soluble fraction (log2)", "value": -0.0179}]}, {"sequence": "HMAAGADEATTVPNVSGDTLNQAIKSLKAEGLGYMLSGAGARVRDQMPEPGAEMTKGSVVMLYMDGDAEVD", "values": [{"measurement": "soluble fraction (log2)", "value": -0.0304}]}, {"sequence": "HMAAGVESLTEKEFAVASLVGGGASNREIAERLAMSERTVKSHLSSIFRKMDVRDRVQLALAMND", "values": [{"measurement": "soluble fraction (log2)", "value": 0.00815}]}, {"sequence": "HMAAIPATVDEETYRRLKPMLKQYGILYHEFKPLRSGKKGAVELIFMEKDLALVQELLSRLKKEK", "values": [{"measurement": "soluble fraction (log2)", "value": 0.422}]}, {"sequence": "HMAAIPEQVSEEVVSAVKASGIDPGKVTKEQWTSLLKGRRTALGSSSGKLFMLSKAPVGYTLKAVNA", "values": [{"measurement": "soluble fraction (log2)", "value": 0.333}]}, {"sequence": "HMAAMDMFVKLDALDAELTEQLKALPAEPDDARVERGLALLTDYDHRIKALLTEIFGGENDFDKVL", "values": [{"measurement": "soluble fraction (log2)", "value": -2.4}]}, {"sequence": "HMAAPPPLSDYRNMQEAEHIRNILLQHHGNVRRAAAALELSRPYLYQKMKQLGINIAELRELSLSHSS", "values": [{"measurement": "soluble fraction (log2)", "value": -0.559}]}, {"sequence": "HMAASEAESIRILLSEGVDRVHLRKPQSAEADMRRLIEALPPELYPRLTLQDHLHLAGEYGT", "values": [{"measurement": "soluble fraction (log2)", "value": 0.0186}]}, {"sequence": "HMAATGPLTPREAEIARLAAGHLSNRQIAEQLVVSERTVENHLYRIFIKLAVTGRDDLAAALAATEQ", "values": [{"measurement": "soluble fraction (log2)", "value": -0.689}]}, {"sequence": "HMAATNVKVPDLKGWDYNNAVGKYGDKLSFVKKSIYSDSVSKGIIIYNARVGETVAQGTTIEVTVSLGPKG", "values": [{"measurement": "soluble fraction (log2)", "value": -0.205}]}, {"sequence": "HMAAVPYQVKITTEDLRIRTGPGTNHDFTGQYTGKGVFTIVEESEGSGAPIWGRLKSGAGWIGIDPSWSVR", "values": [{"measurement": "soluble fraction (log2)", "value": -0.706}]}, {"sequence": "HMADAGQTTAATELKQAPNAGSATISQLSAGQTLQIGTRQGAWYQVKTPQGEGWVRMLSVRLQ", "values": [{"measurement": "soluble fraction (log2)", "value": 0.0186}]}, {"sequence": "HMADEGFRQTVLAVLARWESKIHHGQYNALKAKVMNGNWSSFVKQVVKFQGKFIHPDAAKELLGLFG", "values": [{"measurement": "soluble fraction (log2)", "value": -0.0749}]}, {"sequence": "HMADFIKEIKTNNPRQLLKSILSSFMPRALILELEMLLWNDLKSKPIGEWSNTQIENVGKLLNNWILKPAA", "values": [{"measurement": "soluble fraction (log2)", "value": 0.0698}]}, {"sequence": "HMADIWDLLRSEYKLTETDVRMLTDMLPDELMNDFRSEVLALRDRMNRYKVNNPKSYVVTSLKNFIIQHTP", "values": [{"measurement": "soluble fraction (log2)", "value": -0.263}]}, {"sequence": "HMADKNIIGVLSAADNLGKVRITTANGEKYIITVPDGLSDIVKTYWEEEVSVKYVIEKRRKILVDIDG", "values": [{"measurement": "soluble fraction (log2)", "value": -1.67}]}, {"sequence": "HMADLIIMSSDATEKQVDKVINKIKNMGFNVNISKGTEKTIIGIIGDTRGISDEVFKIMPGVIEVISILRD", "values": [{"measurement": "soluble fraction (log2)", "value": -0.39}]}, {"sequence": "HMADLIVFTTDANKEKKVDDETYFYLDVVSDGKLVENYELTEKQYNYIKDLGVGEYVYNEKGKLDSYTAFT", "values": [{"measurement": "soluble fraction (log2)", "value": -0.00687}]}, {"sequence": "HMADPLQLLEQQRQDYIQAVTEYLNSHPNAKPIWDVMKKDAGYGDMKLTDIPLGILKKLYITLT", "values": [{"measurement": "soluble fraction (log2)", "value": -0.356}]}, {"sequence": "HMADRVFGHIPGVAVGSIFPDRRSLSQTGVHRPTQAGISGNKTDGADSIVVSGGYRDDRDYGDLIIYTG", "values": [{"measurement": "soluble fraction (log2)", "value": -0.000463}]}, {"sequence": "HMADTFVMPDLVYRRYEPVRGYFERGGFHMGAVKFEPYEGISDGTILRQNPLPGHPLRRRDVISLVVAAS", "values": [{"measurement": "soluble fraction (log2)", "value": -2.23}]}, {"sequence": "HMADYYETLGVERTASEEDIKRAYRKMSRKYHPDIAGPEFEEKFKEVNTAYEVLSDPDKRRMYDAGVDPND", "values": [{"measurement": "soluble fraction (log2)", "value": 0.0489}]}, {"sequence": "HMADYYSILGLTKNATDIEIKSAFRKLAKIYHPDKNPDPNARVLFEHILKAYDTLINPHSRRRYDSL", "values": [{"measurement": "soluble fraction (log2)", "value": -0.349}]}, {"sequence": "HMAEELELFHRLISVTGVGPKGALGFLSQLKPQEIILAILSDDVKTLSKAPGVGRKTAQRVILELKDKF", "values": [{"measurement": "soluble fraction (log2)", "value": -1.14}]}, {"sequence": "HMAEGPYSGKKVEKYPGGMEKRETMYSEGKLTRVTEFHQSGQKKMEVKVDANGQWKRLYWDNNGNPT", "values": [{"measurement": "soluble fraction (log2)", "value": 0.07}]}, {"sequence": "HMAEIIVHEINRHLGESDEPVEFPEERREEAVAELLKNFHNDDAFRKMDDGKYEVALDGEAVREAARSLLA", "values": [{"measurement": "soluble fraction (log2)", "value": 0.207}]}, {"sequence": "HMAELTTVQAADILHVSRPFLIKLLDEGQIPYHRVGKHRRIRMEDVMNYKRAIDQQREAVLDQLVAEA", "values": [{"measurement": "soluble fraction (log2)", "value": -0.0408}]}, {"sequence": "HMAEMLQDVLNMLSAKDREILVRYYYYYESVKQVAAEMQMSESAVKMRMSRARKKMQQELIDKG", "values": [{"measurement": "soluble fraction (log2)", "value": -3.59}]}, {"sequence": "HMAEPAEDLLSLEGMDKGLAYQLASNGVVTREDLAELATDDLLEIREMDAEQAAALIMKAREHWFEAEQQ", "values": [{"measurement": "soluble fraction (log2)", "value": 0.211}]}, {"sequence": "HMAEPEALLAMAQRILGEEVAQSLFQGAAREQGKEGYLPDPTPAFLDALEARLSGSVGAATAHAMISQLVG", "values": [{"measurement": "soluble fraction (log2)", "value": -0.0483}]}, {"sequence": "HMAEPSTSYTQFMDQAKEGKIKRVDVQGRTLTVTPTEGATYKITAPGDLWMVEDLRKAGVQVYGQP", "values": [{"measurement": "soluble fraction (log2)", "value": 0.207}]}, {"sequence": "HMAEPYDERKVMEQMIPKGKNTIVAHLGHLKDHGETGYLQEALSYLRERESELGFDLKEVRALVHN", "values": [{"measurement": "soluble fraction (log2)", "value": 0.251}]}, {"sequence": "HMAEQVLHQKLAARRKELNSLVAQVARVRGIPHSHVHSGLRREAGGPPLAQATTDQVEARISLARKWLRA", "values": [{"measurement": "soluble fraction (log2)", "value": -0.728}]}, {"sequence": "HMAERLQARIDAPGVRLDKALAETFPTLSRARLQALLADGAVTRDGQTVSNGSAKAQPGLYVVALPPVA", "values": [{"measurement": "soluble fraction (log2)", "value": 0.381}]}, {"sequence": "HMAESNQIQLSDVREALNMIGPASWLDLVHYLDTGKGRGGQRLRRMLKSLSRSGEIELVARGTYQITDN", "values": [{"measurement": "soluble fraction (log2)", "value": -0.422}]}, {"sequence": "HMAEVALFVNGSDVNLRSGPGQESTRVIGSLNLGDEVRIKSQNGQWREVYVPKTRQVGWVAHWLLSEAPP", "values": [{"measurement": "soluble fraction (log2)", "value": 0.192}]}, {"sequence": "HMAEVPDLRNKTQQEAEAELTNHNLKLGNVTEEYSATVEAGRVISQSTSYGTKVLEGSSVDITISKGPEPT", "values": [{"measurement": "soluble fraction (log2)", "value": -0.0123}]}, {"sequence": "HMAEWLFDARKIPDEVMNYLRRIAVQAIEEKHYSPELVADLLGISRSSIYDWLNWYRNGGEEDLDTRKA", "values": [{"measurement": "soluble fraction (log2)", "value": -0.613}]}, {"sequence": "HMAFAQMAQEAAKGKDDFNDLRQEMEAVIKEQPHILLMAQFGQNPYEIAYQEAKRRKAQDQQQQQ", "values": [{"measurement": "soluble fraction (log2)", "value": 0.288}]}, {"sequence": "HMAFGTGTVTASSLRVREDASTSAATLDTLSKGSKVSVLADEQDGFYKVQIGEQVGYMSAEYLDVTE", "values": [{"measurement": "soluble fraction (log2)", "value": 0.0904}]}, {"sequence": "HMAFKNGLLQTSKKVTLVRKVDGVTMRFDSLRAASVFLGRNKGYLSNVIKNGRTLDNYEIVVGE", "values": [{"measurement": "soluble fraction (log2)", "value": -0.991}]}, {"sequence": "HMAFRIGGFVQEGSVVRQQDGGTVRFEVTDTAHSVPVTYKGSLPDLFKEGKGVVAQGKLMNGTFVADQVLA", "values": [{"measurement": "soluble fraction (log2)", "value": -0.0129}]}, {"sequence": "HMAGATDTVRNLLERQIREGELLPGQRLPTEPELAARLGVSRNSLREALQSLEDSGLIVKRHGIGTFVTE", "values": [{"measurement": "soluble fraction (log2)", "value": 0.0848}]}, {"sequence": "HMAGLELVVTREQAGRTVKSLLRGELGISTALMGRLKRTGTGLTVNGTRVFTNAVLREGDRLAVDLDAAE", "values": [{"measurement": "soluble fraction (log2)", "value": -0.606}]}, {"sequence": "HMAGLKERLFYFIEYKGLTVQSFEKTVGLSNGAVSKMGDNTRRSTIDKISNFFGDLNKNWLLTGEGEMLI", "values": [{"measurement": "soluble fraction (log2)", "value": -0.99}]}, {"sequence": "HMAGRKMMVMANNLSVRKSANSLSEKLADLSRGDTVEYISSTNGWNKVRYKGQIGYVSSYYLKDTGEEVE", "values": [{"measurement": "soluble fraction (log2)", "value": -0.0409}]}, {"sequence": "HMAGTKRAENIEIQKLTEVLEARLDSVGFFWPDHKAESMIMTLRNMISRLPLTEADVRVFHGIIKSLADK", "values": [{"measurement": "soluble fraction (log2)", "value": -0.527}]}, {"sequence": "HMAGTWQDQGNGQWKYQNDDGSYATGWIEDSGKSYYLDANGIMLANTTTPDGKQVGPDGALIP", "values": [{"measurement": "soluble fraction (log2)", "value": -0.141}]}, {"sequence": "HMAHETIDVAALRVGMFVQLDLGWLSHPFPLSSFRISSEDQIATIRALGLKRVRWSSEQSDS", "values": [{"measurement": "soluble fraction (log2)", "value": -4.29}]}, {"sequence": "HMAHPRTHEALNPLWEKYLGPNAGNDFFLSGGTSLKALMFLKDLEKTLNKRIAIHAFFKDPTYEHVVSD", "values": [{"measurement": "soluble fraction (log2)", "value": -0.683}]}, {"sequence": "HMAHTGGNTLTREKAVSVRSASDALLFEIHWNETPREDILSTREEKVDGKTYSIITIRTGKGREDHYYLLS", "values": [{"measurement": "soluble fraction (log2)", "value": -0.29}]}, {"sequence": "HMAHYPGKVNNELVEFIRSEQRKTPHMTLTGLNRKLQRTYDLTLSESTVRKLVEAETILPLAREPD", "values": [{"measurement": "soluble fraction (log2)", "value": -0.0739}]}]}
